Reference: patent US20240301073A1 (SCHOLAR ROCK, published 2024)

B1: Ab42 human Fab (Fab, V domains shown)
VH: QVQLVESGGGVVQPGRSLRLSCAASGFTFRSYVMHWVRQAPGKGLEWVAVISHEGSLKYYADSVKGRFTISRDNSKNTLYLQMNSLRAEDTAVYYCARPRIAARRGGFGYWGQGTLVTVSS
VL: NFMLTQPHSVSESPGKTVTISCTRSSGNIDNNYVQWYQQRPGSSPTTVIYEDNQRPSGVPDRFSGSIDSSSNSASLTISGLKTEDEADYYCQSYDYDTQGVVFGGGTKLTVL
notes: Fab of Ab42; also called Ab42 Fab; Ab42 (monovalent, Fab)
B2: Ab42 (antibody, V domains shown)
VH: QVQLVESGGGVVQPGRSLRLSCAASGFTFRSYVMHWVRQAPGKGLEWVAVISHEGSLKYYADSVKGRFTISRDNSKNTLYLQMNSLRAEDTAVYYCARPRIAARRGGFGYWGQGTLVTVSS
VL: NFMLTQPHSVSESPGKTVTISCTRSSGNIDNNYVQWYQQRPGSSPTTVIYEDNQRPSGVPDRFSGSIDSSSNSASLTISGLKTEDEADYYCQSYDYDTQGVVFGGGTKLTVL
notes: also called SR-AB42; SR-Ab42

Assays:
[1] = molecular target: T1, human LTBP3-proTGFβ1 complex (human, UniProt Q9NS15 44-1303; P01137 30-390, limits assumed); assay: monovalent Fab affinity (Biacore); repeats the 12th table
T1 construct: also called hLTBP3-proTGFβ1
T1 sequence (Q9NS15 44-1303 limits assumed, chain 1 of 2): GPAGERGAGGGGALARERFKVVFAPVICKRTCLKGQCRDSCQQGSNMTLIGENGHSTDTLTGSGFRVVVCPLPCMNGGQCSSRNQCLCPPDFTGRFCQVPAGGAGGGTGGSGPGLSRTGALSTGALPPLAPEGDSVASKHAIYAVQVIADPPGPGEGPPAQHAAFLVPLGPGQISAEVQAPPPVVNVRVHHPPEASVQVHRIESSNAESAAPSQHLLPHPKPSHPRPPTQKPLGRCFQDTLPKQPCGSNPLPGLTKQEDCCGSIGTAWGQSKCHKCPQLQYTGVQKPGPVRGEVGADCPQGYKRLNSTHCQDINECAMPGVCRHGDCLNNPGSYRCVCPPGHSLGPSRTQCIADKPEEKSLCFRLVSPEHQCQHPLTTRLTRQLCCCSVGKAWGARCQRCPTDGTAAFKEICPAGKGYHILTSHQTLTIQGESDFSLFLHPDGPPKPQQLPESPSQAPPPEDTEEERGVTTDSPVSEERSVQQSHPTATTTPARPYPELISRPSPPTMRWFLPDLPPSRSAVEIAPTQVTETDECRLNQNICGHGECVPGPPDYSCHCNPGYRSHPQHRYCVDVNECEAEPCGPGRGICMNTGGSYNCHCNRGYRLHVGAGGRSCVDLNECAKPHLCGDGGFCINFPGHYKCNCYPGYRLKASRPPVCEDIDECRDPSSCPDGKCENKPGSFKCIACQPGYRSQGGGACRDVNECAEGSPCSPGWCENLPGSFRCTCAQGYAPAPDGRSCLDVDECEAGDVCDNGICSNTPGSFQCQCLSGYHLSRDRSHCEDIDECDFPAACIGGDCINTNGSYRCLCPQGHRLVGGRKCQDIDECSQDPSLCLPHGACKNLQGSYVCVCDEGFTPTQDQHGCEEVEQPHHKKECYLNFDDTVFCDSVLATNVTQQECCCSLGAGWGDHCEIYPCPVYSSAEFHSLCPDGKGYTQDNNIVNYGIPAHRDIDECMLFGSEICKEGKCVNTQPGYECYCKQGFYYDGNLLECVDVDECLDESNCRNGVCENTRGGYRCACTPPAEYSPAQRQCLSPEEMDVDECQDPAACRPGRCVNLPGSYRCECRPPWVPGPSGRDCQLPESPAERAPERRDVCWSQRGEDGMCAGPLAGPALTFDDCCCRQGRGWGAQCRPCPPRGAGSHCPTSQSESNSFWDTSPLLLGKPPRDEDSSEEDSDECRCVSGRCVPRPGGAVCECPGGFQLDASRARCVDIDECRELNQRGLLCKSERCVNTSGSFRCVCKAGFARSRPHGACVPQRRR
T1 sequence (P01137 30-390 limits assumed, chain 2 of 2): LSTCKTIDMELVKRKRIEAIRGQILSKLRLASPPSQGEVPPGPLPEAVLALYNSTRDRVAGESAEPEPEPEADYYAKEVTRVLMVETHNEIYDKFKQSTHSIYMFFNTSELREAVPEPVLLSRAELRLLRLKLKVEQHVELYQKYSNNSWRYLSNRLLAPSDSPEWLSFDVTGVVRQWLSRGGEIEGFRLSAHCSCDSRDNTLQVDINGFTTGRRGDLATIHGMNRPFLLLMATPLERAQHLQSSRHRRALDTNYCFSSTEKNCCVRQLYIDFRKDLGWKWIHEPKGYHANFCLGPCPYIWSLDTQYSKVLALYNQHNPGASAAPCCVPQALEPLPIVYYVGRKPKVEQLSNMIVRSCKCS

[2] = molecular target: T2, human GARP-proTGFβ1 complex (human, UniProt Q14392 20-627; P01137 30-390, limits assumed); assay: as above
T2 construct: also called hGARP-proTGFβ1
T2 sequence (Q14392 20-627 limits assumed, chain 1 of 2): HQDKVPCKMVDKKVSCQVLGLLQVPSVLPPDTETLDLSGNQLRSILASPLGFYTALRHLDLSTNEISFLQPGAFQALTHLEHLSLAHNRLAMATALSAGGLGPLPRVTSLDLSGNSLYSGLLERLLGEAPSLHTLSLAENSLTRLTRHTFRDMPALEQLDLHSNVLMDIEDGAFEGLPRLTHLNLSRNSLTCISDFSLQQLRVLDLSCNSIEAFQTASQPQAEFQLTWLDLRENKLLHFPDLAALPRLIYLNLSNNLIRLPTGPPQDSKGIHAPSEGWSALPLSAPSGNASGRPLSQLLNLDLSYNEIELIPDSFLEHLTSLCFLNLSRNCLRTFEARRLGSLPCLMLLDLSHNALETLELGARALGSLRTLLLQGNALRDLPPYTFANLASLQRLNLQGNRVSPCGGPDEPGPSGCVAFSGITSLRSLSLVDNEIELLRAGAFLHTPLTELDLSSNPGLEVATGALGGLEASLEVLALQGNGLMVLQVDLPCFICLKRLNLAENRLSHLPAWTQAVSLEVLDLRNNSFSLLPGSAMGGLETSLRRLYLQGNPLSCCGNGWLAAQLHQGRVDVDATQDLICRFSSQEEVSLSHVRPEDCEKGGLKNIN
T2 sequence (P01137 30-390 limits assumed, chain 2 of 2): as the sequence (P01137 30-390 limits assumed, chain 2 of 2) above

[3] = molecular target: T3, human LTBP1-proTGFβ1 complex (human, UniProt Q14766 347-1721; P01137 30-390); assay: as above
T3 construct: also called hLTBP1-proTGFβ1
T3 sequence (Q14766 347-1721 limits assumed, chain 1 of 2): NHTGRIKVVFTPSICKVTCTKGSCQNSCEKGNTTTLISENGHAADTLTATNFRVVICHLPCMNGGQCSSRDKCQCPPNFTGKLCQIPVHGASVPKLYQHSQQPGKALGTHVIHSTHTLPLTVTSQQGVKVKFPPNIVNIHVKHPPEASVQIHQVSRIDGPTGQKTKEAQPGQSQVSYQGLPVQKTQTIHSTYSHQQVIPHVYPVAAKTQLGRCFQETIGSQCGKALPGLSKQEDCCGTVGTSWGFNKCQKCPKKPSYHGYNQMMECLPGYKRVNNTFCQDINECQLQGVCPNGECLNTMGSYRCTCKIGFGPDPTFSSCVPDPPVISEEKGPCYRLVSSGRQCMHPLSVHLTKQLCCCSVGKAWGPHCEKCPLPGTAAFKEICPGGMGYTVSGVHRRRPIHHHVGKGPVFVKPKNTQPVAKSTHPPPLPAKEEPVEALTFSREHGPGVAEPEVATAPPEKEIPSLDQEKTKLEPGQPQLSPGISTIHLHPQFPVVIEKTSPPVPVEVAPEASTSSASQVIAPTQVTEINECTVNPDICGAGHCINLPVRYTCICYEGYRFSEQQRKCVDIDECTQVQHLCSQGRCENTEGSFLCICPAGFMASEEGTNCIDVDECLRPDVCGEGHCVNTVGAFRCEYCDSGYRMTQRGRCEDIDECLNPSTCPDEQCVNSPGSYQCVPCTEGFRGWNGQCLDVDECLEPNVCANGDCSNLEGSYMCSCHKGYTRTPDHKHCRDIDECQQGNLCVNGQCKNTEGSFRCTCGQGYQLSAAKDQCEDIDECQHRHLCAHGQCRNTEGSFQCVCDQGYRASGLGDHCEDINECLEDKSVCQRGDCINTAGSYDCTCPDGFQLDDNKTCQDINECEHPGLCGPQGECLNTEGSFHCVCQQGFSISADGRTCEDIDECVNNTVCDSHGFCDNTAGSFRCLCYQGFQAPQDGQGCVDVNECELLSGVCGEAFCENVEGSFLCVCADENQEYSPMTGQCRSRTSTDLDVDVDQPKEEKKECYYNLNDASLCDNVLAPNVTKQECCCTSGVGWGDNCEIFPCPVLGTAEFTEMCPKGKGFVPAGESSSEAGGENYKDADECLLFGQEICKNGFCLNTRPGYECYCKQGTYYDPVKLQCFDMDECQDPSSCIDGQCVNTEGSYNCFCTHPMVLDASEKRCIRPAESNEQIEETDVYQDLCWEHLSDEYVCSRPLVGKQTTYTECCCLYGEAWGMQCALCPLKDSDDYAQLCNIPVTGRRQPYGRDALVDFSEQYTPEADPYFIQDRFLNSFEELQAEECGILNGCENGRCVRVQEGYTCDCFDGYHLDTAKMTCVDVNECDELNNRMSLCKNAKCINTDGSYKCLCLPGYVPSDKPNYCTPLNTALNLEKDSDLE
T3 sequence (P01137 30-390 limits assumed, chain 2 of 2): as the sequence (P01137 30-390 limits assumed, chain 2 of 2) above

[4] = molecular target: T4, human LRRC33-proTGFβ1 complex (human, UniProt Q86YC3 19-650; P01137 30-390, limits assumed); assay: as above
T4 construct: also called hLRRC33-proTGFβ1
T4 sequence (Q86YC3 19-650 limits assumed, chain 1 of 2): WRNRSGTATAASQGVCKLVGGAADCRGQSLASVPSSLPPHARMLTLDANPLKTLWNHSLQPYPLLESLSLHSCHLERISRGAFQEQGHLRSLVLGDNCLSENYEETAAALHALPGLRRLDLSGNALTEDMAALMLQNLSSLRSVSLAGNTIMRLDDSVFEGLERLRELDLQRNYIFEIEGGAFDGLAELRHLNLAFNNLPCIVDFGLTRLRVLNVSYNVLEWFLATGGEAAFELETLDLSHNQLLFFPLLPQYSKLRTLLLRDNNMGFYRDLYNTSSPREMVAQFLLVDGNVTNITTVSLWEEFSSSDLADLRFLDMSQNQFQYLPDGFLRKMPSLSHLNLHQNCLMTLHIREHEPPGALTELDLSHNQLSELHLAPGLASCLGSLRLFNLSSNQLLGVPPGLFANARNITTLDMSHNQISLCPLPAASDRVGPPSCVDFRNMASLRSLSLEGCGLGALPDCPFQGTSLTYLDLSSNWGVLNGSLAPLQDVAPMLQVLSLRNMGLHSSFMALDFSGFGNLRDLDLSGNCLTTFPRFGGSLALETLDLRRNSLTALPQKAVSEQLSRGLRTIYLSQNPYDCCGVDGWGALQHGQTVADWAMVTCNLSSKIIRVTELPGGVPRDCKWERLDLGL
T4 sequence (P01137 30-390 limits assumed, chain 2 of 2): as the sequence (P01137 30-390 limits assumed, chain 2 of 2) above

[5] = molecular target: T1, human LTBP3-proTGFβ1 complex; assay: SPR (Biacore), monovalent Fab
[6] = molecular target: T2, human GARP-proTGFβ1 complex; assay: SPR (Biacore), monovalent Fab
[7] = molecular target: T3, human LTBP1-proTGFβ1 complex; assay: SPR (Biacore), monovalent Fab
[8] = molecular target: T4, human LRRC33-proTGFβ1 complex; assay: SPR (Biacore), monovalent Fab
[9] = molecular target: T1, human LTBP3-proTGFβ1 complex; assay: SPR (Biacore)
[10] = molecular target: T3, human LTBP1-proTGFβ1 complex; assay: SPR (Biacore)
[11] = molecular target: T1, human LTBP3-proTGFβ1 complex; assay: binding profile; method not stated
[12] = molecular target: T3, human LTBP1-proTGFβ1 complex; assay: binding profile; method not stated

Binder	Kd [1] [nM]	Kd [2] [nM]	Kd [3] [nM]	Kd [4] [nM]	Kd [5] [nM]	koff [5] [s⁻¹]	kon [5] [M⁻¹ s⁻¹]	Kd [6] [nM]	koff [6] [s⁻¹]	kon [6] [M⁻¹ s⁻¹]	Kd [7] [nM]	koff [7] [s⁻¹]	kon [7] [M⁻¹ s⁻¹]	Kd [8] [nM]	koff [8] [s⁻¹]	kon [8] [M⁻¹ s⁻¹]	fold binding selectivity compared to GARP or LRRC33 complexes [9] [fold]	fold binding selectivity compared to GARP or LRRC33 complexes [10] [fold]	fold specificity over GARP and LRRC33 complexes [11] [fold]	fold specificity over GARP and LRRC33 complexes [12] [fold]
B1	0.57	145	0.38	134	0.57	0.000109	191000	145	0.006	41500	0.38	0.000111	293000	134	0.00271	20200	~100	~100		
B2																			> 100	> 100
